Assay results published in the supplement of paper PMC7125110.
± gives the standard error. For part of these data: Fewer inactive variants are shown than the library holds.

B1: glmS ribozyme (parent)
chain: AUAAAAGCGCCAGAACUACAGAAAUGUAGUUGACGAGGAGGAGGUUUAUCGAAUUUUCGGCGGAUGCCUCCAAA

Assays:
Conditions in all cases: with glucosamine-6-phosphate
glucosamine-6-phosphate [1] = variants of: B1; test: kcat; higher = faster cleavage; RNA array
In short: (§1)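 kcat and KM were obtained from weighted Michaelis–Menten fits across concentrations of kobs values. Those came from one- or two-exponential decay fits to per-tile medians normalised to baseline and to non-cleaving reference variants. The variants were barcoded ribozymes transcribed in situ by E. coli RNA polymerase on sequenced MiSeq chips and tracked through a hybridised Cy3 probe at 37 °C, with 40 μM to 10 mM glucosamine-6-phosphate in HEPES/KCl/Mg(OAc)2 buffer flowed in.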

glucosamine-6-phosphate [2] = variants of: B1; test: KM; higher = weaker cofactor use; RNA array
In short: as §1

glucosamine-6-phosphate [3] = variants of: B1; test: self-cleavage kobs at 40 uM GlcN6P; higher = faster cleavage; RNA array
In short: as §1

glucosamine-6-phosphate [4] = variants of: B1; test: self-cleavage kobs at 160 uM GlcN6P; higher = faster cleavage; RNA array
In short: as §1

glucosamine-6-phosphate [5] = variants of: B1; test: self-cleavage kobs at 640 uM GlcN6P; higher = faster cleavage; RNA array
In short: as §1

glucosamine-6-phosphate [6] = variants of: B1; test: self-cleavage kobs at 2500 uM GlcN6P; higher = faster cleavage; RNA array
In short: as §1

glucosamine-6-phosphate [7] = variants of: B1; test: self-cleavage kobs at 10000 uM GlcN6P; higher = faster cleavage; RNA array
In short: as §1

| Variant | kcat (glucosamine-6-phosphate [1]) [s⁻¹] | KM (glucosamine-6-phosphate [2]) [µM] | self-cleavage kobs at 40 uM GlcN6P (glucosamine-6-phosphate [3]) [s⁻¹] | self-cleavage kobs at 160 uM GlcN6P (glucosamine-6-phosphate [4]) [s⁻¹] | self-cleavage kobs at 640 uM GlcN6P (glucosamine-6-phosphate [5]) [s⁻¹] | self-cleavage kobs at 2500 uM GlcN6P (glucosamine-6-phosphate [6]) [s⁻¹] | self-cleavage kobs at 10000 uM GlcN6P (glucosamine-6-phosphate [7]) [s⁻¹] |
| --- | --- | --- | --- | --- | --- | --- | --- |
| A15G C16G | 0.00525 ± 0.001 | 2660 ± 820 | 9.12e-05 ± 2.2e-05 | 0.000213 ± 6.8e-05 | 0.0011 ± 0.00023 | 0.00326 ± 0.00063 | 0.00391 ± 0.00059 |
| U31A C50A | 1.34e-05 ± 6.2e-07 | 605 ± 190 | < 1e-05 | < 1e-05 | < 1e-05 | – | – |
| U54C G66A | 0.011 ± 0.0023 | 1100 ± 320 | 0.000397 ± 5.3e-05 | 0.00112 ± 0.0004 | 0.00522 ± 0.0011 | 0.00593 ± 0.0014 | 0.0118 ± 0.0022 |
| G29C C68U | 0.000269 ± 5.9e-05 | 959 ± 460 | 2.38e-05 ± 1.1e-05 | 4.12e-05 ± 5.7e-06 | 0.000112 ± 8.7e-06 | 0.000172 ± 1.2e-05 | 0.000368 ± 3.6e-05 |
| A36C C71A | < 1e-05 | – | – | – | – | – | – |
| G32A U56C | 0.000235 ± 2.8e-05 | 2950 ± 670 | – | – | 4.72e-05 ± 1e-05 | 9.95e-05 ± 1.6e-05 | 0.000191 ± 3.1e-05 |
| U55A C70A | 0.00013 ± 1.3e-05 | 116 ± 52 | 2.79e-05 ± 1.1e-05 | 8.57e-05 ± 2e-05 | 0.00011 ± 2.1e-05 | 0.000155 ± 2.2e-05 | 0.000114 ± 1.4e-05 |
| G29U U47A | 0.00313 ± 0.00095 | 1350 ± 650 | 9.83e-05 ± 1.2e-05 | – | 0.000972 ± 0.00015 | 0.00104 ± 0.00036 | 0.0033 ± 0.00035 |
| G41A G66C | 3.76e-05 ± 1.2e-06 | 1410 ± 200 | – | – | – | 2.49e-05 ± 1.2e-05 | 3.27e-05 ± 9.4e-06 |
| A14G G66C | 0.00168 ± 6.5e-05 | 1410 ± 110 | 4.79e-05 ± 9.1e-06 | – | 0.000484 ± 0.00012 | 0.00114 ± 0.00025 | 0.00147 ± 0.00015 |
| G13U G38C | < 1e-05 | – | – | – | < 1e-05 | – | < 1e-05 |
| A53C A64U | < 1e-05 | – | < 1e-05 | – | – | – | – |
| G41C U56G | 0.000101 ± 5.7e-06 | 2280 ± 390 | – | – | 2.47e-05 ± 1e-05 | 4.78e-05 ± 1.5e-05 | 8.29e-05 ± 1.2e-05 |
| U31A C68U | 0.00143 ± 0.00043 | 2740 ± 1200 | – | 6.73e-05 ± 1.4e-05 | 0.000477 ± 9.5e-05 | 0.000776 ± 0.00018 | 0.00105 ± 0.00019 |
| C11G G51A | < 1e-05 | 30.6 ± 15 | < 1e-05 | – | – | – | < 1e-05 |
| U31C C67G | 4.05e-05 ± 1e-06 | 467 ± 76 | < 1e-05 | – | 2.33e-05 ± 8.8e-06 | 3.49e-05 ± 6.3e-06 | 3.83e-05 ± 5.5e-06 |

| Variant | kcat (glucosamine-6-phosphate [1]) [s⁻¹] | KM (glucosamine-6-phosphate [2]) [µM] | self-cleavage kobs at 40 uM GlcN6P (glucosamine-6-phosphate [3]) [s⁻¹] | self-cleavage kobs at 160 uM GlcN6P (glucosamine-6-phosphate [4]) [s⁻¹] | self-cleavage kobs at 640 uM GlcN6P (glucosamine-6-phosphate [5]) [s⁻¹] | self-cleavage kobs at 2500 uM GlcN6P (glucosamine-6-phosphate [6]) [s⁻¹] | self-cleavage kobs at 10000 uM GlcN6P (glucosamine-6-phosphate [7]) [s⁻¹] |
| --- | --- | --- | --- | --- | --- | --- | --- |
| G29C C58A | 0.000126 ± 8e-06 | 1420 ± 280 | – | – | 3.49e-05 ± 1.2e-05 | 8.42e-05 ± 1.4e-05 | 0.000108 ± 1.5e-05 |
| A14C G40C | 0.000718 ± 6.3e-05 | 3650 ± 530 | – | 2.58e-05 ± 1.1e-05 | 0.000114 ± 1.8e-05 | 0.000285 ± 3.3e-05 | 0.000533 ± 7.6e-05 |
| U57A G59A | 1.13e-05 ± 3e-06 | – | – | – | < 1e-05 | – | – |
| G41C C67U C70A | 5.68e-05 ± 1.2e-05 | 9730 ± 3700 | – | – | – | – | 2.88e-05 ± 1.3e-05 |
| A39U U47G | 0.00519 ± 0.00052 | 1940 ± 270 | 0.000119 ± 1.7e-05 | 0.000358 ± 4.8e-05 | 0.00132 ± 0.00018 | 0.00285 ± 0.00052 | 0.00439 ± 0.00057 |
| A12G A15G C70A | 0.000107 ± 1.9e-05 | 2120 ± 890 | – | – | – | 5.85e-05 ± 1.1e-05 | 8.6e-05 ± 3.1e-05 |
| U45C C71A | 0.00125 ± 0.00022 | 4720 ± 1500 | – | – | 0.00014 ± 3.9e-05 | 0.000744 ± 0.00031 | 0.000832 ± 0.00015 |
| U47A U69G | 7.34e-05 ± 1.1e-05 | – | – | – | 7.68e-05 ± 1.1e-05 | 8.85e-05 ± 1.1e-05 | 5.37e-05 ± 1e-05 |
| A6U G35U G38C A53U A64G | < 1e-05 | – | – | < 1e-05 | – | – | – |
| A15C A39U | 0.00476 ± 0.00092 | 2170 ± 610 | 0.000106 ± 1.2e-05 | 0.000264 ± 5e-05 | 0.000744 ± 0.00036 | 0.00216 ± 0.00041 | 0.00417 ± 0.00045 |
| G60U G66U | < 1e-05 | – | – | < 1e-05 | < 1e-05 | – | < 1e-05 |
| G9U C61G | 0.000192 ± 1.7e-05 | 2350 ± 460 | < 1e-05 | – | 4.57e-05 ± 1.2e-05 | 9.21e-05 ± 1.7e-05 | 0.00016 ± 2.5e-05 |
| A6U C58U C70G | 1.51e-05 ± 4.3e-06 | – | – | – | – | – | – |
| G40U U56C | 1.13e-05 ± 5.2e-06 | – | < 1e-05 | – | – | – | – |
| G51U U55G | < 1e-05 | 76.4 ± 18 | – | – | – | – | < 1e-05 |
| A39G G43A | 0.0004 ± 8.6e-05 | 5960 ± 2100 | – | – | 5.25e-05 ± 1.8e-05 | 0.000109 ± 2.1e-05 | 0.000259 ± 4.9e-05 |
